We go through six molecules from patent US9144594B2, “Cathepsin L mediated diseases and associated methods and products” (University of Miami, priority 2005, dated 2015).

Numbering of substitutions follows the chain as printed. Names may count otherwise.

The subject of assay [1] is LPS induced mouse proteinuria model. In words: LPS induced mouse proteinuria model, protein in urine (prevention and reversal by dynamin gene delivery). In kind it is in vivo. Conditions: 2xLPS. As for the experimental part:
Next, it was examined whether gene transfer of dynR725A and dynL356Q, G358V was able to protect from LPS induced changes of podocyte FP and thus proteinuria (FIGS. 6A-B); (Table 2B). […] Whereas the application of wildtype dynamin was unable to protect from LPS induced podocyte FP effacement (data not shown) and proteinuria (0.63 mg/ml after 24 hours, p<0.05 and 1.18 mg/ml after 48 hours, p<0.04); table 2B, the co-administration of R725A together with LPS completely abolished the development of proteinuria after 24 hours (0.20 mg/ml). Podocyte FPs remained normal at this timepoint (FIG. 6B). The decline of R725A expression in podocytes was then associated with the development of proteinuria (1.25 mg/ml, 48 h). At this time point, there was noticeable podocyte FP effacement. The application of the cathepsin L resistant dynamin mutant L356Q, G358V together with LPS conferred a partial protection from proteinuria (0.47 mg/ml, P<0.05). This protection was associated with normal appearing podocyte FP (FIG. 6C). Although this protection was not as strong as the one provided by dynR725A, it was prolonged and was still present even after the second dose of LPS ([…], P<0.04). This observation argues that lower expression levels of dynL356Q, G358V are required to protect from LPS induced FP effacement but the presence of dynR725A has the most powerful protection.
Another set of experiments was carried out to study whether dynR725A and dynL356Q, G358V are also useful once there is already established podocyte damage and proteinuria (reversal experiments), (FIGS. 6C, D); (Table 2C). First LPS was injected in mice at 0 and 24 hours and the course of urinary protein loss was documented. On the peak phase of proteinuria at 48 hours after the first LPS injection, either delivery solution (control), dynR725A or dynL356Q, G358V dynamin mutants were transferred and the morphology of podocyte FP was analyzed and the degree of proteinuria was determined 10 hours later when there was strong expression of the transferred gene in podocytes. […] A dramatic reformation of podocyte FPs was also observed (FIG. 6C). The same observation was true for L356Q, G358V (FIG. 6D) which was able to reduce proteinuria from 1.20 mg/ml to 0.71 mg/ml). From the in vitro data it was determined that R725A starts to self assemble into higher order structures in the LPS setting which render dynamin assembly domain protected from cathepsin L cleavage. […] In addition, dominant activating dynR725A proves useful because despite causing podocyte damage in wildtype mice, it can resist cathepsin L cleavage by self assembly in the LPS setting and have strong activity by impairment in its GTP hydrolysis.
If dynamin is a target of CatL, then dynL356Q and dynR725A, which are resistant to CatL cleavage, might protect kidneys from LPS. In control mice, two injections of LPS led to FP effacement (FIG. 21C) and a large increase in proteinuria (FIG. 21E, Con).
Next it was examined whether dynL356Q and dynR725A can reverse already established proteinuria. LPS was injected into mice at 0 and 24 hours. At the peak of proteinuria at 48 hours, mice were injected with dynWT, dynL356Q, or dynR725A, and the degree of proteinuria was analyzed 12 hours post injection. […] The rescue could be achieved with both podocin and CMV-driven protein expression.
All animal studies were approved by the MGH Subcommittee for Research Animal Care. C57BL6 mice were obtained from Jackson Laboratory (Bar Harbor, Me.). CatL−/− mice are in a pure C57BL6 background (Nakagawa et al., Science 280, 450-453 (1998)). LPS induced mouse proteinuria model was utilized as previously described (Reiser et al., J Clin Invest 113, 1390-1397 (2004)). Rat PAN nephrosis model was induced by a single intravenous injection of PAN (180 mg/kg body wt; Sigma-Aldrich, St. Louis, Mo.) (Kim et al., Am J Physiol Renal Physiol 286, F922-935 (2004)). […]

For assay [2], the system named is mice. Put plainly: Protein in urine after in vivo gene delivery of dynamin mutants into healthy mice (Bradford). Conditions: Table 5 Basic Phenotype, podocin-driven vectors. On the set-up: species or system mouse. The protocol: Next, the level of urinary protein loss following gene delivery of dynamin mutants was examined (Table 2). […] The expression of K44A was associated with severe proteinuria (1.18 mg/ml) at peak gene expression time of 10 hours post injection. The reduction in gene expression was paralleled by a reduction in proteinuria (0.77 mg/ml). Gene transfer of dynR725A caused an increase in proteinuria (0.58 mg/ml). Although this was not a significant increase, it is probable that it is a consequence of the partial podocyte FP effacement seen after gene transfer of dynR725A, and due to increase in the stress fibers formation observed in cultured podocytes.
To explore whether functional dynamin is required for the maintenance of FP morphology in healthy kidneys, it was examined whether expression of dominant negative dynK44A disrupts podocyte function. […] In contrast, podocin driven expression of dynK44A, the dynamin mutant that cannot bind GTP, caused FP effacement (FIG. 21B) and proteinuria (1.1±0.26 mg/ml) at the peak of gene expression […] after gene delivery (FIGS. 21D and 25C). […] In other words, tight regulation of the life-time of the GTP-bound form of dynamin appears to be required for normal FP morphology and ultrafiltration.
CatL plasmids encoding short and long CatL (Goulet et al., Biol Chem 387, 1285-1293 (2004)), Dyn1 plasmids (pcDNA-driven) or p2.5 Podocin-driven (Moeller et al., Genesis 35, 39-42 (2003)) were introduced into mice (n>10, each construct) using the TransIT in vivo gene delivery system according to the manufacturer's instruction (Mirus Bio Corporation, Madison, Wis.). 10 and 24 h after gene delivery, proteinuria was assessed by Multistix 8 SG strips (Bayer Corporation, Elkhart, Ind.), and Bradford protein assay (Sigma, Saint Louis, Mo.). From the same urines the protein creatinine ratio was determined with Albuwell M and Creatinine Companion protein creatinine ELISA kits (Exocell Inc., Philadelphia, Pa.).

Take “WT (CMV): CMV promoter-driven wild type dyn1 vector, gene delivery”: the “Protein in the urine” value in assay [1] (Table 5 Prevention, t = 0) is 0.28 ± 0.07 mg/mL; in assay [1] (Table 5 Prevention, t = 24 h), 0.63 ± 0.12 (1.3.2 × 10^−3) mg/ml; in assay [1] (Table 5 Prevention, t = 48 h) it was 1.18 ± 0.23 (7.6 × 10^−5) mg/ml; in assay [1] (Table 5 Reversal, t = 0), 0.30 ± 0.11 mg/mL; in assay [1] (Table 5 Reversal, t = 48 h), 0.17 ± 0.20 mg/mL; in assay [1] (Table 5 Reversal, t = 58 h) it was 1.10 ± 0.18 mg/mL.

B1: R725A (podo): podocin promoter-driven dynR725A vector, gene delivery (protein, UniProt Q05193 1-864, looked up, variant R725A)
Dynamin-1: MGNRGMEDLIPLVNRLQDAFSAIGQNADLDLPQIAVVGGQSAGKSSVLENFVGRDFLPRGSGIVTRRPLVLQLVNATTEYAEFLHCKGKKFTDFEEVRLEIEAETDRVTGTNKGISPVPINLRVYSPHVLNLTLVDLPGMTKVPVGDQPPDIEFQIRDMLMQFVTKENCLILAVSPANSDLANSDALKVAKEVDPQGQRTIGVITKLDLMDEGTDARDVLENKLLPLRRGYIGVVNRSQKDIDGKKDITAALAAERKFFLSHPSYRHLADRMGTPYLQKVLNQQLTNHIRDTLPGLRNKLQSQLLSIEKEVEEYKNFRPDDPARKTKALLQMVQQFAVDFEKRIEGSGDQIDTYELSGGARINRIFHERFPFELVKMEFDEKELRREISYAIKNIHGIRTGLFTPDMAFETIVKKQVKKIREPCLKCVDMVISELISTVRQCTKKLQQYPRLREEMERIVTTHIREREGRTKEQVMLLIDIELAYMNTNHEDFIGFANAQQRSNQMNKKKTSGNQDEILVIRKGWLTINNIGIMKGGSKEYWFVLTAENLSWYKDDEEKEKKYMLSVDNLKLRDVEKGFMSSKHIFALFNTEQRNVYKDYRQLELACETQEEVDSWKASFLRAGVYPERVGDKEKASETEENGSDSFMHSMDPQLERQVETIRNLVDSYMAIVNKTVRDLMPKTIMHLMINNTKEFIFSELLANLYSCGDQNTLMEESAEQAQRADEMLRMYHALKEALSIIGDINTTTVSTPMPPPVDDSWLQVQSVPAGRRSPTSSPTPQRRAPAVPPARPGSRGPAPGPPPAGSALGGAPPVPSRPGASPDPFGPPPQVPSRPNRAPPGVPSRSGQASPSRPESPRPPFDL
modifications: podocin promoter vector
notes: podocin promoter-driven dynR725A vector, gene delivery
For B1, the “Protein in the urine” value is 0.23 ± 0.07 mg/mL in assay [1] (Table 5 Reversal, t = 0); 1.26 ± 0.34 mg/mL in assay [1] (Table 5 Reversal, t = 48 h); 0.49 ± 0.23 (1.6 × 10^−4) mg/ml in assay [1] (Table 5 Reversal, t = 58 h); 0.29 ± 0.10 mg/mL in assay [2] (t = 0); 0.79 ± 0.22 (4.4 × 10^−5) mg/ml in assay [2] (t = 14 h); 0.45 ± 0.18 (3.6 × 10^−2) mg/ml in assay [2] (t = 24 h).

B2: R725A (CMV): CMV promoter-driven dynR725A vector, gene delivery (protein, UniProt Q05193 1-864, looked up, variant R725A)
Dynamin-1: B1 Dynamin-1
modifications: expressed from CMV vector
notes: CMV promoter-driven dynR725A vector, gene delivery
In the case of B2, the “Protein in the urine” value in assay [1] (Table 5 Prevention, t = 0) is 0.17 ± 0.08 mg/mL; in assay [1] (Table 5 Prevention, t = 24 h), 0.20 ± 0.05 mg/mL; in assay [1] (Table 5 Prevention, t = 48 h) it was 1.25 ± 0.29 (5.0 × 10^−6) mg/ml; in assay [1] (Table 5 Reversal, t = 0), 0.28 ± 0.10 mg/mL; in assay [1] (Table 5 Reversal, t = 48 h), 1.15 ± 0.17 mg/mL; in assay [1] (Table 5 Reversal, t = 58 h), 0.38 ± 0.23 (1.8 × 10^−3) mg/ml.

B3: K44A (podo): podocin promoter-driven dynK44A vector, gene delivery (protein, UniProt Q05193 1-864, looked up, variant K44A)
Dynamin-1: B1 Dynamin-1 with K44A, A725R
modifications: podocin promoter vector
notes: podocin promoter-driven dynK44A vector, gene delivery
As to B3, the “Protein in the urine” value was 0.24 ± 0.08 mg/mL in assay [2] (t = 0), 1.09 ± 0.27 (3.0 × 10^−5) mg/ml in assay [2] (t = 14 h) and 0.42 ± 0.16 (5.2 × 10^−3) mg/ml in assay [2] (t = 24 h).

B4: L356Q (podo): podocin promoter-driven dynL356Q vector, gene delivery (protein, UniProt Q05193 1-864, looked up, variant L356Q)
Dynamin-1: B1 Dynamin-1 with L356Q, A725R
modifications: podocin promoter vector
notes: podocin promoter-driven dynL356Q vector, gene delivery
Turning to B4, the “Protein in the urine” value in assay [1] (Table 5 Reversal, t = 0) was 0.29 ± 0.05 mg/mL; in assay [1] (Table 5 Reversal, t = 48 h), 1.36 ± 0.49 mg/mL; in assay [1] (Table 5 Reversal, t = 58 h) it was 0.73 ± 0.29 (6.9 × 10^−3) mg/ml; in assay [2] (t = 0), 0.24 ± 0.05 mg/mL; in assay [2] (t = 14 h), 0.45 ± 0.12 (2.5 × 10^−3) mg/ml; in assay [2] (t = 24 h), 0.35 ± 0.018 mg/mL.

B5: WT (podo): podocin promoter-driven wild type dyn1 vector, gene delivery (protein, UniProt Q05193 1-864, looked up)
Dynamin-1: B1 Dynamin-1 with A725R
modifications: podocin promoter vector
notes: podocin promoter-driven wild type dyn1 vector, gene delivery
Turning to B5, the “Protein in the urine” value was 0.28 ± 0.06 mg/mL in assay [2] (t = 0), 0.54 ± 0.13 (4.2 × 10^−3) mg/ml in assay [2] (t = 14 h) and 0.46 ± 0.16 (4.6 × 10^−2) mg/ml in assay [2] (t = 24 h).
